{
  "source": "paper doi:10.1101/429795",
  "origin": "cited, not measured here",
  "molecular_target": "Cys164 (UniProt position 164, MYQQGCFAGGT)",
  "assay": "chemical modification",
  "data": [
    {"substance": "Chalcone synthase (MsCHS; CHS2) (Medicago sativa)", "values": [
      {"measurement": "pKa", "value": 5.5}
    ]}
  ]
}
